Data set [1] has as its target R.NgoAVII (Neisseria gonorrhoeae FA1090). Briefly: SAXS; full-length R- and N-proteins in 20 mM Tris-HCl pH 8.0, 400 mM KCl, 0.1 mM EDTA, 1 mM DTT; molecular weight from scattering data (MoW).
Data set [2] shares this target. Put plainly: SEC; gel filtration of single proteins and domains, Superdex 200 HR, room temperature, 20 mM Tris-HCl pH 8.0, 300 mM NaCl, 5 mM 2-mercaptoethanol; 20 μM (monomer) loading concentration. (In general: Size exclusion chromatography separates by hydrodynamic size, large species first.)
In data set [3] the target is R.CglI (Corynebacterium glutamicum ATCC 13032).
Data set [4] concerns the target N.CglI (Corynebacterium glutamicum ATCC 13032). Briefly: SAXS; full-length R- and N-proteins in 20 mM Tris-HCl pH 8.0, 400 mM KCl, 0.1 mM EDTA, 1 mM DTT; molecular weight from scattering data (MoW).
For data set [5] the target is unchanged. Put plainly: SEC; gel filtration of single proteins and domains, Superdex 200 HR, room temperature, 20 mM Tris-HCl pH 8.0, 300 mM NaCl, 5 mM 2-mercaptoethanol; 20 μM (monomer) loading concentration.
Data set [6] deals with R.CglI (Corynebacterium glutamicum ATCC 13032). Briefly: SAXS; full-length R- and N-proteins in 20 mM Tris-HCl pH 8.0, 400 mM KCl, 0.1 mM EDTA, 1 mM DTT; molecular weight from scattering data (MoW).
Data set [7] shares this target. Put plainly: SEC; gel filtration of single proteins and domains, Superdex 200 HR, room temperature, 20 mM Tris-HCl pH 8.0, 300 mM NaCl, 5 mM 2-mercaptoethanol; 20 μM (monomer) loading concentration.
Data set [8] concerns the target N.CglI isolated Z1 domain (Corynebacterium glutamicum ATCC 13032). The description is as above.
The target in data set [9] is R.CglI (containing a StrepII-tag), co-expressed with N.CglI (Corynebacterium glutamicum ATCC 13032). Put plainly: densitometry of SDS-PAGE; purified RN.CglI complex resolved by SDS/PAGE, molar ratio of the two bands.
Data set [10] deals with N.CglI (containing a His6-tag), co-expressed with R.CglI (Corynebacterium glutamicum ATCC 13032). Briefly: SEC + other: SAXS; purified co-expressed RN.CglI complex; molecular weight close to the sum of the R.CglI and N.CglI dimers.
Data set [11] has as its target R.CglI (containing a StrepII-tag), co-expressed with N.CglI (Corynebacterium glutamicum ATCC 13032). The data set is described as above.
The target of data set [12] is N.CglI isolated Z1-C domain (Corynebacterium glutamicum ATCC 13032). Put plainly: SEC; gel filtration of single proteins and domains, Superdex 200 HR, room temperature, 20 mM Tris-HCl pH 8.0, 300 mM NaCl, 5 mM 2-mercaptoethanol; 20 μM (monomer) loading concentration.
The target in data set [13] is N.CglI-DEAD-Z1 domain (Corynebacterium glutamicum ATCC 13032). The data set is described as above.
Data set [14] has as its system R.CglI (Corynebacterium glutamicum ATCC 13032). Put plainly: EMSA. As to conditions: no metal, 0.1 mM EDTA; EMSA: 1 nM 33P-DNA, 1-500 nM protein monomer, 40 mM Tris-acetate pH 8.3 (25°C), 0.1 mM EDTA (NgoAVII: 5 mM Ca-acetate instead), 0.1 mg/ml BSA, 10% glycerol …. Background: In EMSA bound probe runs differently from free probe, usually more slowly.
Data set [15] has as its system R.CglI in RN.CglI complex;N.CglI (Corynebacterium glutamicum ATCC 13032;Corynebacterium glutamicum ATCC 13032). Briefly: EMSA. To be noted: EMSA: 1 nM 33P-DNA, 1-500 nM protein monomer, 40 mM Tris-acetate pH 8.3 (25°C), 0.1 mM EDTA (NgoAVII: 5 mM Ca-acetate instead), 0.1 mg/ml BSA, 10% glycerol ….
Data set [16] deals with the molecule itself. Briefly: SEC; gel filtration of single proteins and domains, Superdex 200 HR, room temperature, 20 mM Tris-HCl pH 8.0, 300 mM NaCl, 5 mM 2-mercaptoethanol; 20 μM (monomer) loading concentration.

R.NgoAVII (enzyme): the stoichiometry N in data set [1] and in data set [2] was 2 in each case.

In data set [3], N.CglI (enzyme) came in with an ATP hydrolysis rate of N.CglI at saturating ATP (4 mM) and optimal concentrations of DNA and R.CglI (malachite green assay) of 176 ATP/s. Moreover, the stoichiometry N in data set [4] and in data set [5] was 2 throughout. For R.CglI (enzyme), the stoichiometry N in data set [6] and in data set [7] was 2 throughout. The molecule “N.CglI isolated Z1 domain (domain or fragment)” displayed a stoichiometry N in data set [8] of 2.

Take “N.CglI (containing a His6-tag), co-expressed with R.CglI (enzyme)”: the stoichiometry N (N.CglI per R.CglI) in data set [9] came to 0.75. In data set [10], the stoichiometry N turned out to be 2. In data set [11], the stoichiometry N (N.CglI per R.CglI (2:2)) came out at 1. The molecule “N.CglI isolated Z1-C domain (domain or fragment)” showed a stoichiometry N in data set [12] of 2. The molecule “N.CglI-DEAD-Z1 domain (domain or fragment)” returned a stoichiometry N in data set [13] of 2. As for “R.CglI (containing a StrepII-tag), co-expressed with N.CglI (enzyme)”, the stoichiometry N in data set [11] was 2. As to “TACAATCGATAATAGCCGCCGTGCGAGCCCATT (double strand) [33 bp cognate duplex]”, the equilibrium dissociation constant (Kd) is 9.2 nM in data set [14] and 1.9 nM in [15].

B1: R.CglI isolated PLD domain (domain or fragment)
chain: PLDKFFDKELKDTHHLDITVGYISEKSLQYLLLIAGTHPDLTITLTCGMHAREGMTAAQLHHARVLHDYLSDHDRGGVFVIPRLRYHGKIYLFHKNQHTDPIAYIGSANLSAIVPGYTSTFETGVILDPAPEDLVLH
As to B1, the “stoichiometry N” value in data set [16] worked out at 2.

Broadly, the stoichiometry N is a count of units in the complex or per binding partner. The Kd is the free concentration of one partner at which half of the binding sites on the other are occupied at equilibrium, for simple one-to-one binding.

The values above are taken from article PMC4267653, “DNA cleavage by CgII and NgoAVII requires interaction between N- and R-proteins and extensive nucleotide hydrolysis” (Nucleic Acids Research, 2014).
